For six molecules, Ratio and OD490 results are on record in patent US20110195027A1 (KOREA RESEARCH INSTITUTE OF BIOSCIENCE AND BIOTECHNOLOGY, published 2011).

For test [1], the target named is T1, CD9-ECL2(CD9 extracellular domain 2)-Fc antigen (human).
T1 construct: also called CD9-ECL2-Fc; CD9-EC2-Fc
Description: phage ELISA; CD9 OD/a-myc OD. Here is the method: (§1) A 96-well immuno-plate was coated with CD9-EC2-Fc antigen (0.1 μg/well) at 4° C. for 16 hours, followed by blocking with skim milk dissolved in PBS (4%). Each well of the 96-well immuno-plate was washed with 0.2 ml of PBS-tween20 (0.05%). 100 ul of the 3rd-4th panning monoclonal scFV-phage was added to each well, followed by reaction at room temperature for 2 hours. Each well was washed four times with 0.2 ml of PBS-tween20 (0.05%). The secondary antibody anti-M13-HRP was diluted at 1:2000, followed by reaction at room temperature for 1 hour. The plate was washed with 0.2 ml of PBS-tween20 (0.05%), followed by color development. OD₄₉₀ was measured.
Target sequence in this assay (chain, as listed by the source limits assumed): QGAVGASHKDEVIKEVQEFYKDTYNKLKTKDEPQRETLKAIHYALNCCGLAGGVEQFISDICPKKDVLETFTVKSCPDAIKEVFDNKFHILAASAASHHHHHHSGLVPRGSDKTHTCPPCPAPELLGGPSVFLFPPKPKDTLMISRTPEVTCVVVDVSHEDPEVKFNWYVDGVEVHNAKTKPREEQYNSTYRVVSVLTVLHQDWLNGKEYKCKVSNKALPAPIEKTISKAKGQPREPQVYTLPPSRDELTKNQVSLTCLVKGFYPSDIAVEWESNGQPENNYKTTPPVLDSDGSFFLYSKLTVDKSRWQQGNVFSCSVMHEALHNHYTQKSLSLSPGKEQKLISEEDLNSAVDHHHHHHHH
In general terms: ELISA stands for enzyme-linked immunosorbent assay.

Test [2] deals with T1, CD9-ECL2(CD9 extracellular domain 2)-Fc …. Description: phage ELISA; CD9 OD/a-myc OD (repeats Table 3). The protocol: as §1
Target sequence in this assay (chain, as listed by the source limits assumed): as above
A further test concerns the target T2, Fc.
T2 construct: Control antigen of the phage ELISA
Description: phage ELISA. Here is the method:
as §1

Test [3] addresses T1, CD9-ECL2(CD9 extracellular domain 2)-Fc …. Description: phage ELISA. The protocol:
as §1
Target sequence in this assay (chain, as listed by the source limits assumed): as above

The target is the same in test [4]. Description: phage ELISA; CD9 OD/a-myc OD. This is another data set of the same source.
Test [5] shares this target. Description: phage ELISA; CD9 OD/a-myc OD (repeats Table 2).
A further test deals with T3, CD9-ECL2 mutant M1 (human, with rat residues, UniProt P21926 112-195).
T3 construct: also called mutation 1; not shown: Myc and 8x His tag of the pYK His only vector
T3 chain: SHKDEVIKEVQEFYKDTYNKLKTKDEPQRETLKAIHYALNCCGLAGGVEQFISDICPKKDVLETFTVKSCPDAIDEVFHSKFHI
Description: ELISA: antibody coated, supernatant, anti-His-HRP. Here is the method:
(§2) Each supernatant was loaded by 24 ul at 100 V for 2 hours, and then transferred to NC membrane (Millipore Cat. No. HATF00010) at 85V for 2 hours. The membrane finished with transfer was blocked by using blocking buffer (4% skim milk in TEST) at room temperature for 1 hour. A-His-HRP (Sigma, Cat. No. A7058) was diluted with blocking buffer (4% skim milk in TBST) at 1:4000 and binding was induced at room temperature for 1 hour. The membrane was washed with TBST 5 times every 10 minutes, followed by development (Intron, Cat. No. 12145). Expression of each mutant was confirmed by Western blotting (FIG. 15). Based on that, epitopes of ALB6 and 10E4 were confirmed by ELISA. A 96-well immuno-plate (NUNC) was coated with coating buffer comprising ALB6 and 10E4 (100 ng/100 ul/well each) at 4° C. for 16 hours, followed by blocking with 4% PBST (skim milk dissolved in 1× PBS) for 2 hours. Each well of the 96-well immuno-plate was washed three times with 0.2 ml of PBST (PBS-tween20 (0.05%)). From the supernatants obtained on day 5 confirmed to contain a large number of mutants confirmed by Western blotting, wild type, M1 and M4 supernatants were selected. 100 ul of the selected supernatant was added to each well of the plate, followed by reaction for 2 hours. The plate was washed again. The secondary antibody anti-His-HRP (Sigma A7058) was diluted at 1:1000, followed by reaction at room temperature for 30 minutes. Washing was performed three times by the same manner as described above. OPD tablet (Sigma 8787-TAB) was added to PC buffer [C₆H₈O₇H₂O (Sigma, C0706) 5.1 g, Na₂HPO₄ (Sigma, 57907 7.3 g)] to make substrate solution, which was added to each well by 100 ul/well, followed by color development for 10 minutes. Color development was terminated by adding 2 M H₂SO₄ solution. Then, OD₄₉₀ was measured by using ELISA reader (Molecular Device).

The next test addresses T4, CD9-ECL2 mutant M4 (human, with rat residues, UniProt P21926 112-195).
T4 construct: also called mutation 4; not shown: Myc and 8x His tag of the pYK His only vector
T4 chain: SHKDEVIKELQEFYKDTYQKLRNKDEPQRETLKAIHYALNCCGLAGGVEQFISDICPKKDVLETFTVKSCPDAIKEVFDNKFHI
Put plainly: ELISA: antibody coated, supernatant, anti-His-HRP. Here is the method:
as §2

The target of test [6] is T5, p-Myc-His CD9-ECL2 wild type (human).
T5 chain: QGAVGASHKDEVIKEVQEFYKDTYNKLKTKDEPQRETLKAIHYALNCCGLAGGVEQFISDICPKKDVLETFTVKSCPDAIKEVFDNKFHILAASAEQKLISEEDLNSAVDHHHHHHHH
Description: ELISA: antibody coated, supernatant, anti-His-HRP. Here is the method:
as §2

B1: CD9 3F3 scFv monoclonal phage antibody (scFv, V domains shown, not shown: small tags and cut ends)
VH: QMQLVQSGAEVKKPGASVKLSCKASGYTFSSYWMHWVRQAPGQRLEWMGEINPGNGHTNYNEKFKSRVTITVDKSASTAYMELSSLRSEDTAVYYCGQDNSPPRIWGQGTLITVSS
VL: QSALTQPASVSGSPGQSITISCTGTSSDVGGYNHVSWYQQHPGKAPKLLIYDVSNRPSGVSGRFSGSKSGNTASLTISGLQAEDEANYYCGSYTSSSTFEVFGTGTKVTVL
Consider B1, for which the Ratio in [1] and in test [2] was 0.918 each time. Further, the OD490 with Fc came out at 0.0394; in test [3], 0.961.

B2: CD9 11G scFv monoclonal phage antibody (scFv, V domains shown)
VH: QVQLVQSGAEVKKPGASVKLSCKASGYTSSSYWMHWVRQAPGQRLEWMGEINPGNGHTNYNEKFKSRVTITVDKSASTAYMELSSLRSEDTAVYYCGQDNSPPRIWGQGTLVTVSS
VL: DIQMTQSPSTLSASVGDRVTITCRASQTIGNLAWFQQKPGKAPKLLIYKASSLESGVPSRFSGSGSGTEFTLTISSLQPDDFATYYCQQYSDYWTFGQGTKVEIK
notes: also called 11G3
With B2, the Ratio in [1] and in test [2] was 1.23 throughout. The OD490 was 0.0441 with Fc and 2.24 in [3].

B3: CD9 5G4 scFv monoclonal phage antibody (scFv, V domains shown)
VH: QVQLVSSGAEVKKPGASVKLSCKASGYTFSSYWMHWVRQAPGQRLEWMGEINPGNGHTNYNEKFKSRVTITVDKSASTAYMELSSLRSEDTAVYYCAREDDIEDAFDFWGQGTMVTVSS
VL: DIQMTQSPSSVSASVGDRVTITCRASQSISSWLAWYQQKPGKAPKLLIYGASNLQSGVPSRFSGSGSGTDFTLTISSLHPEDFATYFCHKTDSFPLTFGGGTKVEIK
In the case of B3, the Ratio in test [4] and in [5] was 1.04 each time.

B4: 10E4 whole IgG (antibody, V domains shown)
VH: MAQVQLVQSGGGLVQPGRSLRLSCAASGFTFDDFAMHWVRQAPGKGLEWVAGISWNSGDIRYADSVRGRFTISRDNAKNSLFLQMNSLRAEDTAVYYCARSPVGTTYFDYWGQGALITVSS
VL: DIQMTQSPSSLSASVGDRVTITCRASQGISSYLAWYQQKPGKAPKLLIYAASTLQSEVPSRFSGSGSGTDFTLTISSLQPEDFATYYCQQLNIFPLTFGGTKVDIKR
notes: Whole IgG made from the 10E4 phage clone in pNATAB H and pNATAB L vectors; the heavy chain PCR primer starts at QVQLVQS; also called 10E4 human antibody; anti-CD9(10E4) IgG
With B4, the OD490 stood at 0.084 with CD9-ECL2 mutant M1, 0.398 with CD9-ECL2 mutant M4 and 0.375 in test [6].

B5: CD9 8A scFv monoclonal phage antibody (scFv, V domains shown)
VH: QVQLVQSGAEVKKPGASVKLSCKASGYTFSSYWMHWVRQAPGQRLEWMGEINPGNGHTNYNEKFKSRVTITVGKSASTAYMELSSLRSEDTAVYYCAREGVSAAGGLDHWGQGTQITVSS
VL: DIQMTQSPSSLSVSTGARVTITCRASQGISNYLAWYQQKPGKAPKLLIYAASTLQSGVPSRFSGSGSGTDFTLTISSLQPEDFATYYCQQLNSYPLTFGGGTKVEIK
notes: also called 8A3
With B5, the Ratio in [1] and in test [2] was 0.73 each time. Moreover, the values for the OD490 (in the test with Fc; in test [3]) were 0.088 and 1.61, respectively.

B6: CD9 12F scFv monoclonal phage antibody (scFv, V domains shown)
VH: QVQLVQSGAEVKKPGASVKLSCKASGYTFSSYWMHWVRQAPGQRLEWMGEINPGNGHTNYNEKFKSRVTITVDKSASTAYMELSSLRSEDTAVYYCARELEEGAFDIWGQGTMVTVSS
VL: DIQMTQSPSSLPASVGDRVTITCRASQGISSYLAWYQQKPGKAPKLLIYAASTLQSGVPSRFSGSGSGTDFTLTISSLQPEDFATYYCQQYDSVPLTFGGGTKVEIK
notes: also called 12F3
Take B6: the Ratio in test [1] was found to be 0.669; in test [2], 0.668. Further, the OD490 with Fc was 0.124; in [3] it was 1.16.
